# From publication PMC4703857
# What was measured:
# [1] = target: haemoglobin:haptoglobin complex (UniProt P00738); assay: ITC
# [2] = target: human haemoglobin (human); assay: ITC
# [3] = target: transferrin (Homo sapiens) (UniProt P02787); conditions: cited from earlier work
# [4] = target: Kingella denitrificans HpuA, wild type (Kingella denitrificans); assay: ITC
# [5] = target: KdHpuA T124D (Kingella denitrificans); assay: NMR titration
# [6] = target: KdHpuA Δloop-1 (Kingella denitrificans); assay: NMR titration
# [7] = target: Kingella denitrificans HpuA, wild type (Kingella denitrificans); assay: NMR titration
# Chain of UniProt P02787 (P02787 20-698): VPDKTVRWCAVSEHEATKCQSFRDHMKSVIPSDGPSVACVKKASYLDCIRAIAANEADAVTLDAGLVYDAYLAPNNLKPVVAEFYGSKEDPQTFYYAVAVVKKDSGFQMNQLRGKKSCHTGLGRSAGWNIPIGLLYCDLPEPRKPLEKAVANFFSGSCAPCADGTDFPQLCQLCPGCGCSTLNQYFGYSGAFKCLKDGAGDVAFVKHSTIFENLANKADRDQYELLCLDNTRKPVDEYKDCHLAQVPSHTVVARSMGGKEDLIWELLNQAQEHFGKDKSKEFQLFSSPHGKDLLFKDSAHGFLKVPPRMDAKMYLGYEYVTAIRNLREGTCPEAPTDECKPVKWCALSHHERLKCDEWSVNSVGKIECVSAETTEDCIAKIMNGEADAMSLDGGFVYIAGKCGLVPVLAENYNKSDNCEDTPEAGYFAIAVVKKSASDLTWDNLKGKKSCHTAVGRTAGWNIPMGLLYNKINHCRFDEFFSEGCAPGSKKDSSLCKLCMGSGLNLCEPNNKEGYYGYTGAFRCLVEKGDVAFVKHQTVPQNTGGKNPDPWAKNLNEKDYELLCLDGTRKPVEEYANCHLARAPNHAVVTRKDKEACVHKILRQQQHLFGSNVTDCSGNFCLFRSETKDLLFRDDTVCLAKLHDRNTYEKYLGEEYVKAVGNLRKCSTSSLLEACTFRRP
substance,measurement,setting,value
"Kingella denitrificans HpuA, wild type (natural protein)",Kd,[1],2900 nM
same,stoichiometry N (HpuA per Hb4:Hp4 complex),[1],2
same,Kd,[2],10.9 µM
same,stoichiometry N (HpuA per Hb tetramer),[2],2
TbpAB (from UniProt Q9K0U9),Kd,[3],0.8 nM
human haemoglobin (complex),Kd,[4],6.1 µM
same,stoichiometry N (Hb tetramers per HpuA),[4],0.5
same,Kd,[5],16 µM
same,Kd,[6],150 µM
same,Kd,[7],10 µM
